Measured values reported in the Human Domainome abundance scans (Beltran et al. 2025).

B1: Serine/threonine-protein kinase A-Raf, residues 21 to 89; numbered along this chain, P10398 (parent)
chain: VKVYLPNKQRTVVTVRDGMSVYDSLDKALKVRGLNQDCCVVYRLIKGRKTVTAWDTAIAPLDGEELIVE

Variants of: B1
Assay: abundance fitness (aPCA) (normalised: wild type 0, dead -1); higher = more abundant; growth selection in yeast, the domain comes from the species named
Conditions: Homo sapiens

Abundance fitness, by site and new letter:
M19: E -0.013 | R -0.218 | A -0.17 | Q 0.011 | P -0.778 | I -0.413 | V -0.057 | C -0.091 | W -0.053 | L -0.154 | D -0.09 | H -0.491 | F -0.274 | K -0.223 | G -0.216 | T -0.034 | Y -0.352
Q9: A -0.198 | T -0.209 | N -0.332 | L -0.455 | K -0.042 | P -0.876 | R -0.211 | V -0.035 | Y -0.458 | C -0.479 | S -0.11 | I -0.162 | E -0.008 | W -0.448 | M -0.149 | H -0.559 | G -0.297 | D 0.028
V21: C -0.707 | G -1.04 | P -0.99 | F -0.392 | M -0.207 | L 0.093 | Q -0.834 | W -0.602 | A -0.273 | H -0.996 | K -0.493 | Y -0.033 | R -0.864 | S -0.858 | E -0.65 | I -0.602 | T -0.964
K27: Q -0.39 | R -0.046
V12: P -0.748 | E -0.066 | G -0.983 | Q -0.18 | N -0.325 | Y 0.019 | C -0.304 | A -0.503 | R -0.096 | M -0.264 | F -0.254 | W -0.067 | D -0.341 | L -0.189 | T -0.096 | I -0.117 | H -0.115 | K -0.111
T11: G -0.919 | L 0.052 | Q -0.1 | Y -0.351 | W -0.652 | D -0.233 | F -0.08 | I -0.072 | V 0.038 | E -0.108 | R -0.652 | K -0.371 | S -0.582 | P -0.979 | M -0.002 | C -0.064
Y22: L -0.04 | D -0.83 | E -0.144 | A 0.056 | W -0.069 | T -0.383 | K 0.012 | C -0.176 | V -0.321 | R 0.11 | Q 0.041 | N -0.346 | G 0.105 | S 0.094 | P -0.95 | H 0.024 | M -0.142
R16: V -0.133 | G -0.108 | F -0.169 | D -0.106 | H 0.191 | E -0.037 | A -0.027 | M -0.181 | P -0.117 | T -0.086 | S -0.048 | K -0.045 | I -0.073 | N -0.147 | C -0.028 | L -0.072 | Y 0
L29: M 0.191 | P -0.958 | G -0.941 | F -0.191 | N -0.607 | C -0.995 | E -0.947 | I -0.907 | A -0.933
G18: Y -0.638 | M -0.89 | Q -0.305 | W -0.636 | C -0.261 | A -0.513 | P -0.659 | E -0.25 | R -0.373 | I -0.882 | D -0.143 | V -0.663 | T -0.405 | F -0.651 | H -0.244 | S -0.239 | K -0.08
S20: A -0.808 | D -0.296 | G -0.94 | C -0.31 | P -0.728 | W -0.847 | E -0.913 | M -0.832 | T 0 | V -0.876 | Y -0.623 | F -0.844 | R -0.352 | L -0.91 | N -0.122 | Q -0.799
V15: T -0.147 | H -0.122 | W -0.093 | N -0.408 | F -0.001 | R -0.822 | K -0.797 | Q -0.686 | S -0.179 | A -0.017 | D -0.33 | C 0 | I -0.088 | M -0.234 | G -0.17 | P -0.257 | L -0.105
D26: L -0.137 | I -0.146 | S -0.113 | R 0.023 | Q 0.179 | V -0.065 | T -0.277 | C 0.063 | E 0.04 | H -0.096 | Y -0.182 | G -0.1 | K -0.076 | W -0.113 | A 0.069 | P -0.977 | M -0.119
A28: T -0.206 | L 0.029 | Y -0.274 | R -1.06 | D -0.371 | G -0.78 | M -0.037 | P -0.15 | E -0.195 | I -0.271 | F -0.122 | C -0.223 | W -0.425 | Q -0.438 | V 0.1 | S -0.263
S24: N -0.469 | V 0.031 | M -0.04 | P -0.896 | A 0.174 | Y -0.487 | F -0.349 | E -0.652 | H -0.949 | I 0.027 | C 0.11 | R -0.914 | G 0.149 | W -0.35 | T -0.025 | K -0.912 | D -0.887 | Q -0.411
D23: N -0.294 | F -0.056 | C -0.908 | M -0.301 | Y -0.825 | R -0.283 | S -0.145 | H -0.345 | Q 0.118 | P -0.931 | W -0.338 | E 0.085 | K -0.106 | V -0.389 | G -0.388 | L -0.493 | T -0.087 | A -0.201
V13: L -0.202 | T -0.864 | S -1 | Q -0.468 | M -0.892 | G -1.06 | I 0.039 | E -0.857 | C -0.206 | K -0.955 | D -0.714 | F -0.795 | P -0.772 | R -0.78 | W -0.856
T14: D -0.205 | W -0.098 | V -0.126 | M -0.113 | P -0.005 | A -0.078 | L -0.172 | G -0.295 | Q 0.034 | H -0.213 | Y -0.415 | S -0.156 | K -0.008 | E -0.138 | N -0.097 | F -0.01 | C -0.251
D17: H -0.279 | A 0.039 | I -0.221 | W -0.304 | E -0.032 | C -0.418 | P 0.075 | G -0.096 | F -0.114 | V -0.186 | L -0.319 | Y -0.319 | T -0.178 | S -0.04 | M -0.144 | Q 0 | K 0.017
L25: Q -0.961 | E -0.944 | F -0.903 | D -0.717 | K -0.542 | C -0.427 | W -0.971 | V -0.54 | A -0.919 | R -0.924 | G -0.697 | S -0.891 | I -0.573 | T -0.978 | H -1.06
K8: Y -0.231
R10: K -0.002 | F 0.147 | A -0.15 | N 0.042 | P -0.318 | Q 0.036 | Y 0.051 | H 0.041 | L -0.059 | G -0.158 | I 0.258 | C 0.025 | M 0.139 | E 0.118 | D -0.281 | S 0.177 | T 0.111 | V 0.187 | W 0.067
